According to patent US20240059789A1 (Janssen / Centocor, published 2024):
Where a chain is given by its changes, count along the chain named. One block for each binder: values may come before it.

Experiments:
[1] = target: Human CD3 on T cells / Jurkat cells (human, UniProt P07766 23-207); experiment: cell-based or functional assay
[2] = target: T1, Human PSMA on prostate cancer cell lines (C4-2B, 22RV1) (human, UniProt Q04609 1-750); experiment: cell-based or functional assay
[3] = target: T1, Human PSMA on prostate cancer cell …; experiment: flow cytometry on C4-2B cells
Protocol: (§1) Selected anti-PSMA antibodies were evaluated for binding to commercial prostate cancer cell lines. C4-2B cells were originally developed at MD Anderson and are derived from LNCaP FGC grown in vivo and metastasize to bone marrow (Thalmann, et al 1994, Cancer Research 54, 2577-81). 22Rv1 cells are a human prostate carcinoma epithelial cell line derived from a xenograft that was serially propagated in mice after castration-induced regression and relapse of the parental, androgen-dependent CWR22 xenograft. 22RV1 and C4-2B cells were plated at 50,000 cells per well in 50 μl of assay medium (RPMI, 10% HI FBS) in V bottom plates. Serial dilutions of antibodies were prepared in assay medium with 50 μl of antibody dilutions added to the plates containing cells. The plates were incubated for 60 min at 37° C. at which time 100 μl of staining buffer (Becton Dickinson Cat #554657) was added to all wells of each plate. The plates were centrifuged at 300×G for 5 minutes and the medium was removed from the wells. 200 μl of staining buffer was added to all wells of each plate. The plates were centrifuged at 300×G for 5 minutes and the medium was removed from the wells. 50 μl of 2 μg/ml AlexaFluor647-labeled goat anti-human Fc was added to all wells of the plates and the plates were incubated for 30 minutes at 4° C. 150 μl of staining buffer was added to all wells of each plate. The plates were centrifuged at 300×G for 5 minutes and the medium was removed from the wells.

[4] = target: T1, Human PSMA on prostate cancer cell …; experiment: flow cytometry on 22RV1 cells
Protocol: as §1

[5] = target: T2, Human PSMA ECD (Lys44-Ala750), N-6xHis (PSMW39) (human, UniProt Q04609 44-750); experiment: SPR Biacore 8K, mAb captured by anti-Fc, antigen in solution
T2 construct: also called PSMW39.002; hu PSMA
Protocol: (§2) The association and dissociation were monitored for 3 and 15 minutes, respectively, using a flow rate of 50 μL/min. Raw binding data was referenced by subtracting the analyte binding signals from blanks and analyzed using a 1:1 Langmuir binding model using the Biacore Insight evaluation software to obtain the kinetics, which were used to calculate the binding affinity. The anti-PSMA were captured using an anti-human Fc antibody and the antigens were injected in solution.

[6] = target: T3, Avi-6xHis-GS-cyno PSMA ECD (PSMW1) (Macaca fascicularis, UniProt Q04609 48-750 (human entry)); experiment: as above
T3 construct: also called PSMW1.009; cy PSMA
T3 chain: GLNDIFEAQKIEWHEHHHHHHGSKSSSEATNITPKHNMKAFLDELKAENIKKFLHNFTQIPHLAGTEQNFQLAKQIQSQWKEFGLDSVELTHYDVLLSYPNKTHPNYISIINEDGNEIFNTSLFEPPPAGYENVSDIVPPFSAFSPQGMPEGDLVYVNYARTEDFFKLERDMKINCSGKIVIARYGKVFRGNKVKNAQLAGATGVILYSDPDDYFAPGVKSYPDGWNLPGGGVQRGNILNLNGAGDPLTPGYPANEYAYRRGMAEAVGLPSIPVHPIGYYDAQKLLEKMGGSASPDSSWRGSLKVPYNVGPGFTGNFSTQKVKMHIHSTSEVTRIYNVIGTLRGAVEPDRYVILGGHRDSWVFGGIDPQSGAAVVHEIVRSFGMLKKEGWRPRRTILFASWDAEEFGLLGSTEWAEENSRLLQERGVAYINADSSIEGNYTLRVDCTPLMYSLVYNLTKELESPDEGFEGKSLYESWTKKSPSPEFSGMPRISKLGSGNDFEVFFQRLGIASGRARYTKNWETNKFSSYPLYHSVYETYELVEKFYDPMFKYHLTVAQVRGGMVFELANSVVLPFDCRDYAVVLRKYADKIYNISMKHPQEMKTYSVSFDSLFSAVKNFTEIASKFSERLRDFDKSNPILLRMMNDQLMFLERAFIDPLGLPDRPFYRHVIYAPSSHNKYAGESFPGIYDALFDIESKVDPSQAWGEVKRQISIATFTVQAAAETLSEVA
Protocol: as §2

[7] = target: Avi-6xHis-GS-mouse PSMA (45-752) (PSMW29) (Mus musculus, UniProt O35409 45-752); experiment: as above
Protocol: as §2

Sequence of Human CD3 on T cells / Jurkat cells (P07766 23-207 limits assumed): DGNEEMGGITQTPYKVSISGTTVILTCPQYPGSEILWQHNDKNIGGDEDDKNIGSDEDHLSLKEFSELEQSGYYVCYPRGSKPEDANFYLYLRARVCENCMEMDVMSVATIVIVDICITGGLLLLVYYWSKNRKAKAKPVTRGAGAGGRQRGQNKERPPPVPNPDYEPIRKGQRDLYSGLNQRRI
T1 sequence (Q04609 whole entry): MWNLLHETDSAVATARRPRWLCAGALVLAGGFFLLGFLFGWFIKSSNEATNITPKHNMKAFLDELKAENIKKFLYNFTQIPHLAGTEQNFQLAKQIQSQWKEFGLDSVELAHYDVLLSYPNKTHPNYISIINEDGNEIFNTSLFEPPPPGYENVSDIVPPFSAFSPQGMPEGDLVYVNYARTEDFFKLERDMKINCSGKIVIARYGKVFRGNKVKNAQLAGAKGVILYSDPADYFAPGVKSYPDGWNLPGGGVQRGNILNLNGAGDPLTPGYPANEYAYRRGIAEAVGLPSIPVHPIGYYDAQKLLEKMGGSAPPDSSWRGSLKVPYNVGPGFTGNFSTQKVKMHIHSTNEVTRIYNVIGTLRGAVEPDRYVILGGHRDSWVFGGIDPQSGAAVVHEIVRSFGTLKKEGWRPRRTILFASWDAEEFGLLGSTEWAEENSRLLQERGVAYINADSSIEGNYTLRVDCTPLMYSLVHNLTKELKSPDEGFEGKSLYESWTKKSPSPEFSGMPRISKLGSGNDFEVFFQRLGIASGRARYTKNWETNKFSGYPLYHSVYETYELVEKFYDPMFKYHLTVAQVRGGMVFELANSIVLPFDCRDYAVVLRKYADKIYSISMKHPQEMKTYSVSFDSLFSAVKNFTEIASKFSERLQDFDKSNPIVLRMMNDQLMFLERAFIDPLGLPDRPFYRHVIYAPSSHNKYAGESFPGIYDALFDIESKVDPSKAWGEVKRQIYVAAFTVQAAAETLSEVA
T2 sequence (Q04609 other isoform, or with tags, fused parts or gaps): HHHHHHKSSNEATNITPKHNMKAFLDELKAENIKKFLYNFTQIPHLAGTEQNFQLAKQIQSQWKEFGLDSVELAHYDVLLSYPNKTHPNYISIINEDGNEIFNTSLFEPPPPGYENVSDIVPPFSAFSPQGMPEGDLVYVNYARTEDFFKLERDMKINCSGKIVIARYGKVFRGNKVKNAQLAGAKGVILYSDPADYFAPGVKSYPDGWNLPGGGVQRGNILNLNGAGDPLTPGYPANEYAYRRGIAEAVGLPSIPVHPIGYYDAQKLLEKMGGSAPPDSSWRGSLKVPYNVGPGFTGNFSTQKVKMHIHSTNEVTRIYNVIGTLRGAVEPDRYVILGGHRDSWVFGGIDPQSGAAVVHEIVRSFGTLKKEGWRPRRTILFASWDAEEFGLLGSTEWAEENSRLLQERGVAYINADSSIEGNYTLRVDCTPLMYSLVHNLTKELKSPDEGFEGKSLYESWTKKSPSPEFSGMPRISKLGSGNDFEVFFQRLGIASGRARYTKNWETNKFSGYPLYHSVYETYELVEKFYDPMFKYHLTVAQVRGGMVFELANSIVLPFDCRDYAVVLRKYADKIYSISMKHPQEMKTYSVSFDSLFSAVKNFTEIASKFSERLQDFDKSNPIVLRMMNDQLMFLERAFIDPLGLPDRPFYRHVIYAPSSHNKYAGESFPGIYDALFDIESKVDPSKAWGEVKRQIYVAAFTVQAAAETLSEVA

T cell activation EC50 [M] (CD25+ T cells, C4-2B co-culture, 72 h) [1]: 6.72e-12 M
B1: PS3B935 (bispecific antibody, human IgG1, kappa, lambda, L234A L235A)
heavy 1: EVQLVESGGGLVKPGGSLRLSCAASGFTFSRYNMNWVRQAPGKGLEWVSSISTSSNYIYYADSVKGRFTFSRDNAKNSLDLQMSGLRAEDTAIYYCTRGWGPFDYWGQGTLVTVSSASTKGPSVFPLAPSSKSTSGGTAALGCLVKDYFPEPVTVSWNSGALTSGVHTFPAVLQSSGLYSLSSVVTVPSSSLGTQTYICNVNHKPSNTKVDKKVEPKSCDKTHTCPPCPAPEAAGGPSVFLFPPKPKDTLMISRTPEVTCVVVSVSHEDPEVKFNWYVDGVEVHNAKTKPREEQYNSTYRVVSVLTVLHQDWLNGKEYKCKVSNKALPAPIEKTISKAKGQPREPQVYTLPPSREEMTKNQVSLTCLVKGFYPSDIAVEWESNGQPENNYKTTPPVLDSDGSFLLYSKLTVDKSRWQQGNVFSCSVMHEALHNHYTQKSLSLSP
light 1: DIQMTQSPSSLSASVGDRVTITCRARQSIGTAIHWYQQKPGKAPKLLIKYASESISGVPSRFSGSGSGTDFTLTISSLQPEDFATYYCQQSGSWPYTFGQGTKLEIKRTVAAPSVFIFPPSDEQLKSGTASVVCLLNNFYPREAKVQWKVDNALQSGNSQESVTEQDSKDSTYSLSSTLTLSKADYEKHKVYACEVTHQGLSSPVTKSFNRGEC
heavy 2: EVQLVESGGGLVQPGGSLRLSCAASGFTFSSYAMSWVRQAPGKGLEWVSAISGGSGSTYYADSVKGRFTISRDNSKNTLYLQMNSLRAEDSAVYYCAKDGVGATPYYFDYWGQGTLVTVSSASTKGPSVFPLAPSSKSTSGGTAALGCLVKDYFPEPVTVSWNSGALTSGVHTFPAVLQSSGLYSLSSVVTVPSSSLGTQTYICNVNHKPSNTKVDKKVEPKSCDKTHTCPPCPAPEAAGGPSVFLFPPKPKDTLMISRTPEVTCVVVSVSHEDPEVKFNWYVDGVEVHNAKTKPREEQYNSTYRVVSVLTVLHQDWLNGKEYKCKVSNKALPAPIEKTISKAKGQPREPQVYTLPPSREEMTKNQVSLTCLVKGFYPSDIAVEWESNGQPENNYKTTPPVLDSDGSFFLYSRLTVDKSRWQQGNVFSCSVMHEALHNHYTQKSLSLSPG
light 2: QSVLTQPPSVSAAPGQKVTISCSGSSSNIGINYVSWYQQLPGTAPKLLIYDNNKRPSGIPDRFSGSKSGTSATLGITGLQTGDEADYYCGTWDSSLSAVVFGGGTKLTVLGQPKAAPSVTLFPPSSEELQANKATLVCLISDFYPGAVTVAWKADSSPVKAGVETTTPSKQSNNKYAASSYLSLTPEQWKSHRSYSCQVTHEGSTVEKTVAPTECS
Tumor killing EC50 [M] (C4-2B + PAN-T cells, 72 h, flow cytometry) [2]: 7.16e-12 M

EC50 [3]: 5.09 nM
EC50 [4]: 1.71 nM
Kd [5]: 0.704 nM
Kd [6]: 2.83 nM
B2: PSMB895 (antibody, human IgG1, lambda, L234A L235A, V domains shown)
VH: EVQLVESGGGLVQPGGSLRLSCAASGFTFSSYAMSWVRQAPGKGLEWVSAISGGIGSTYYADSVKGRFTISRDNSKNTLWLQMNSLRAEDTAVYYCAKDGVGATPYYFDYWGQGTLVTVSS
VL: QSVLTQPPSVSAAPGQKVTISCSGSSSNIGNNYVSWYQQLPGTAPKLLIYDNNKRPSGIPDRFSGSKSGTSATLGITGLQTGDEADYYCGTWDSSLSAYVFGTGTKVTVLG

EC50 [3]: 25.8 nM
EC50 [4]: 1.24 nM
Kd [5]: ≤ 0.0876 nM
Kd [7]: 1.36 nM
Kd [6]: 0.658 nM
B3: PSMB896 (antibody, human IgG1, lambda, L234A L235A, V domains shown)
VH: B2 VH
VL: B2 VL with N31I, Y99V, T103G, V107L

EC50 [3]: 5.58 nM
EC50 [4]: 1.02 nM
Kd [5]: 0.132 nM
Kd [6]: 1.47 nM
B4: PSMB899 (antibody, human IgG1, lambda, L234A L235A, V domains shown)
VH: B2 VH with A23T, T28I, I55Y, S57A, T58P, S63T, W80Y, Y110D, T115I
VL: B2 VL with Y50F

EC50 [3]: 6.53 nM
EC50 [4]: 2.07 nM
Kd [5]: 0.333 nM
Kd [6]: 1.19 nM
B5: PSMB898 (antibody, human IgG1, lambda, L234A L235A, V domains shown)
VH: B2 VH with I55S, W80Y, T91S
VL: B2 VL with N31I, Y99V, T103G, V107L

EC50 [3]: 4.76 nM
EC50 [4]: 2.26 nM
Kd [5]: 1.28 nM
Kd [6]: 3.93 nM
B6: PSMB897 (antibody, human IgG1, lambda, L234A L235A, V domains shown)
VH: B2 VH with I55S, W80Y, T91S
VL: B2 VL

T cell activation EC50 [M] (CD25+ T cells, C4-2B co-culture, 72 h) [1]: 1.55e-10 M
B7: PS3B913 (bispecific antibody, human IgG1, lambda, L234A L235A)
heavy 1: QVQLQQSGPRLVRPSQTLSLTCAISGDSVFNNNAAWSWIRQSPSRGLEWLGRTYYRSKWLYDYAVSVKSRITVNPDTSRNQFTLQLNSVTPEDTALYYCARGYSSSFDYWGQGTLVTVSSASTKGPSVFPLAPSSKSTSGGTAALGCLVKDYFPEPVTVSWNSGALTSGVHTFPAVLQSSGLYSLSSVVTVPSSSLGTQTYICNVNHKPSNTKVDKKVEPKSCDKTHTCPPCPAPEAAGGPSVFLFPPKPKDTLMISRTPEVTCVVVSVSHEDPEVKFNWYVDGVEVHNAKTKPREEQYNSTYRVVSVLTVLHQDWLNGKEYKCKVSNKALPAPIEKTISKAKGQPREPQVYTLPPSREEMTKNQVSLTCLVKGFYPSDIAVEWESNGQPENNYKTTPPVLDSDGSFLLYSKLTVDKSRWQQGNVFSCSVMHEALHNHYTQKSLSLSPG
light 1: QSALTQPASVSGSPGQSITISCTGTSSNIGTYKFVSWYQQHPDKAPKVLLYEVSKRPSGVSSRFSGSKSGNTASLTISGLQAEDQADYHCVSYAGSGTLLFGGGTKLTVLGQPKAAPSVTLFPPSSEELQANKATLVCLISDFYPGAVTVAWKADSSPVKAGVETTTPSKQSNNKYAASSYLSLTPEQWKSHRSYSCQVTHEGSTVEKTVAPTECS
heavy 2: not shown
light 2: not shown
Tumor killing EC50 [M] (C4-2B + PAN-T cells, 72 h, flow cytometry) [2]: 3.11e-10 M

T cell activation EC50 [M] (CD25+ T cells, C4-2B co-culture, 72 h) [1]: 1e-08 M
B8: PS3B915 (bispecific antibody, human IgG1, lambda, L234A L235A)
heavy 1: B7 heavy 1
light 1: B7 light 1
heavy 2: not shown
light 2: not shown
Tumor killing EC50 [M] (C4-2B + PAN-T cells, 72 h, flow cytometry) [2]: 1e-08 M

EC50 [3]: 0.941 nM
EC50 [4]: 1.71 nM
B9: PSMB890 (antibody, human IgG1, lambda, L234A L235A, V domains shown)
VH: EVQLVESGGGLVKPGGSLRLSCAASGFTFSRYNMNWVRQAPGKGLEWVSSINSNSRYIYYADSVKGRFTISRDSAKNSLYLQMNSLRAEDTAVYYCAKTMGDYYYYYGMDVWGQGTTVTVSS
VL: SSELTQPPSVSGAPGQRVTISCAGSLSNIGAGYDVHWYQQLPGTAPKLLIYGNINRLSGVPERFSGSKSGTSASLAITGLQAEDGADYYCQSYDSSLSSYVFGTGTKVTVLG

EC50 [3]: 1.99 nM
EC50 [4]: 0.554 nM
Kd [5]: ≤ 0.253 nM
Kd [6]: ≤ 0.21 nM
B10: PSMB891 (antibody, human IgG1, lambda, L234A L235A, V domains shown)
VH: EVQLVESGGGVVQPGRSLRLSCAASGFTFITYGMHWVRQAPGKGLEWVAVVSFDESNKYYADSVKGRFTISRDNSKNTLYLQMNSLRAEDTAVYYCARALRDGNNWDYFNGMDVWGQGTTVTVSS
VL: not shown
